For the experiment, the target named is T1, HIS-tagged B Lymphocyte Stimulator (human, UniProt Q9Y275 71-285).
T1 construct: Expressed in E. coli; also called HIS-B Lymphocyte Stimulator; histidine-tagged B Lymphocyte Stimulator; not shown: histidine tag from the pQE9 vector
As to the kind of experiment: BIAcore, periplasmic scFv over high density HIS-BLyS surface. The procedure: All BIAcore analysis was performed on BIAcore 2000 machines, using the BIAcore 2000 control software and evaluated using the BIAevaluation 3.0 software. A high density His-tagged B Lymphocyte Stimulator surface (>1000 RU HIS-B Lymphocyte Stimulator coupled) was prepared in flow cell 2 by amine coupling to a CM5 chip. A new CM5 chip was inserted into the BIAcore and a sensorgram started over flow cell 2 with HBS buffer at a flow rate of 5 μl/min. The NHS and EDC solution were mixed 1:1 before injecting 30 μl over the CM5 surface. Fifty μl HIS-B Lymphocyte Stimulator (at 10 μg/ml in Sodium acetate buffer, pH4) was injected and allowed to couple to the surface. Thirty μl of ethanolamine-HCl solution was then injected to block free NHS esters. Prior to using the chip, 10 μl of 4M Guanidine hydrochloride in HBS was injected over the surface to strip the surface of non-covalently bound B Lymphocyte Stimulator. A blank surface (no HIS-B Lymphocyte Stimulator) was also prepared over flow cell 1 so that non-specific binding effects can be subtracted from the HIS-B Lymphocyte Stimulator binding curves.
The 96-well plate containing periplasmic scFvs was secured inside the BIAcore. Two ml of 4M Guanidine hydrochloride in HBS was placed in a rack inside the BIAcore for regeneration of the HIS-B Lymphocyte Stimulator surface between samples. The sensorgram was run over flow cells 1 and 2 at a flow rate of […].

The results in this text go back to patent US20110293610A1 (published 2011).

T1 sequence (Q9Y275 71-285): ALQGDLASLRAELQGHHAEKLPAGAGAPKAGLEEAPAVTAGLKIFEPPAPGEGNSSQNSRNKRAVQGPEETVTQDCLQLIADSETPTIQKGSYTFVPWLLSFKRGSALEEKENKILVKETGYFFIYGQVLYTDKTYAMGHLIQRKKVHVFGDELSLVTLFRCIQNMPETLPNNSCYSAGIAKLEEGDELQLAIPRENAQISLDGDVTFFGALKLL

B1: I079B05 (scFv)
scFv: GVQLVESGGGLVKPGGSLRLSCATSGFRFSDYAMTWVRQAPGKGLEWVSSITGSGGGTHYAGSVRGRFTISRDNSKNTVYLQMNNLRPEDTAVYYCASFVLDYWGKGTLVTVSSGGGGSGGGGSGGGGSQSVLTQPASVSGSPGQSITISCTGTSSDVGGYNYVSWYQQHPGKAPKLMIYEGSKRPSGVSNRFSGSKSGNTASLTISGLQAEDEADYYCSSYTTRSTRVFGGGTKLTVLG
On to B1, for which the binding result was “binds”.

B2: I080E05 (scFv)
scFv: EVQLVQSGAAVKKPGASVKVSCKASGYTFTTYYIHWVRQAPGQGLEWMGIINPVNGNTIYAQKFQGRVTMTRDTSTGTVNMELSSLRSEDTAVFYCVREGGGDAYDVAPYYFDYWGQGTLVTVSSGGGGSGGGGSGGGGSAQAVLTQPSSVSGAPGQRVTISCTGSSSNIGDGYDVHWYQQLPGTAPKLLIYGNSHRPSGVPDRFSGSKSDTSASLAITGLQVEDEADYFCHSYDSSVSGWIFGGGTKLTVLG
For B2, the binding result is “binds”.

B3: I079F08 (scFv)
scFv: QMQLVQSGGGVVQPGRSLRLSCAASGFTFSSYGMHWVRQAPGKGLEWVAVISYDGSIKYYADSVKGRFTISRDNSKNTLYLQMNSLRAEDTAVYYCARYYYHSSGSDAFDIWGQGTLVTVPSGGGGSGGGGSGGGGSQSVLTQPPSASGTPGQRVTISCSGSSSNIGSNTVNWYQRLPGAAPQLLIYNNNQRPSGVPDRFSGSKSGTSASLAISGLQSEDEADYYCAAWDDSLNGWVFGGGTKLTVLG
Turning to B3, the binding result is listed as “binds”.

B4: I080B01 (scFv)
scFv: QVQLVQSGAEVKKPGASVKVSCKASGYTFTNYYMHWVRQAPGQGLEWMGIINPRDVSTTYAQKFQGRATMTRDTSTSTVYMELNSLRSEDTAVYYCAREYSGYHYVEGGSYAMDVWGQGTMVTVSSGGGGSGGGGSGGGGSALSYVLTQPPSASGTPGQRVTITCSGSSSNIGNYYVNWYQQVSGTAPKLIIYRNNQRPSGVPDRFSGSKSGASASLAISGLRSEDEADYFCAAWDDSLREFVFGTGTKVTVLG
Regarding B4, the binding result is given as “binds”.

B5: I082B08 (scFv)
scFv: QVQLVQSGAEVKKPGGSVKVSCKASAYTFTRYYMHWVRQAPGQGLEWMGIINPSGGRTSYAQKFQGRVTMTRDTSTSTVYMELSSLRSEDTAVYYCARDLGIAGTIYFDYWGKGTLVTVSSGGGGSGGGGSGGGGSQSVLTQPPSVSAAPGQKVTISCSGSTSNIGNNYVSWYQQHPGKAPKLMIYDVSKRPSGVPDRFSGSKSGNSASLDISGLQSEDEADYYCAAWDDSLSEFLFGTGTKLTVLG
As for B5, the binding result is on record as “binds”.

B6: I079F06 (scFv)
scFv: QVQLVESGGGLVQPGGSLRLSCAASGFTFSSYWMSWVRQAPGKGLEWVANIKQDGSEKYYVDSVKGRFTISRDNAKNSLYLQMNSLRAEDTAVYYCARDNLHAAFDIWGRGTLVTVSGGGGGSGGGGSGGGGSDIQMTQSPSTLSASIGDRVTITCRASEGIYHWLAWYQQKPGKAPKLLIYKASSLASGAPSRFSGSGSGTDFTLTISSLQPDDFATYYCQQYSNYPLTFGGGTKLEIKR
Take B6: the binding result is reported as “binds”.

B7: I080G09 (scFv)
scFv: QVQLVQSGAEVKKPGASVRVSCKSSGYTFTNYGISWVRQAPGQGLEWMGWISNNNGKTYYAQKVQGRVTMTTDTSTSTDYMELRGLRSDDTAIYYCARDNGGGTIGFDYWGQGTLVTVSSGGGGSGGGGSGGGGSAQSVLTQPPSVSGAPGQRVTISCTGSSSNIGADYDVHWYQLLPGTAPKLLIYGNTNRPSGVPDRFSGSKSGTSASLTIAGLQAEDEADYYCQSYDSSLSGSVVFGGGTKLTVLG
Consider B7, for which the binding result is on record as “binds”.

B8: I079B12 (scFv)
scFv: EVQLVQSRGGVVQPGRSLRLSCAASGLTFSSYGMHWVRQAPGKGLEWVAVISYDGRNKYYADSVKGRFTTSRDNSKNTLYLQMNSLRAEDTAVYYCAKWTSSGAFDIWGRGTLVTVSSGGGGSGGGGSGGGGSDIQMTQSPSTLSASIGDRVTITCRASEGIYHWLAWYQQKPGKAPKLLIYKASSLASGAPSRFSGSGSGTDFTLTISSLQPDDFATYYCHQYSNYPLTFGGGTKLEIKR
Consider B8, for which the binding result is reported as “binds”.

B9: I082D07 (scFv)
scFv: EVQLVQSRGGVVQPGRSLRLSCAASGLTFSSYGMHWVRQAPGKGLEWVAVISYDGRNKYYADSVKGRFTTSRDNSKNTLYLQMNSLRAEDTAVYYCAKWTSSGAFDIWGRGTLVTVSSGGGGSGGGGSGGGGSDIQMTQSPSTLSASIGDRVTITCRASEGIYHWLAWYQQKPGKAPKLLIYKASSLASGAPSRFSGSGSGTDFTLTISSLQPDDFATYYCQQYSNYPLTFGGGTKLEIKR
As for B9, the binding result was “binds”.

B10: I083B12 (scFv)
scFv: QVQLVQSGAEVKKPGASVKVSCKASEYTFYNHYMHWVRQAPGQGLEWMGFINPSGDAAWYAQKFQGRVTLTRDTSTRTVYMELSGLTSEDTAVYYCARESGAGGYYYDDYWGKGTLVTVSSGGGGSGGGGSGGGGSALSYVLTQPPSVSVAPGKTASIPCGGNNIGSKSVQWYLQKAGQAPILVVYDDSDRPSGIPERFSGSNSGNTATLTITRVEAGDEADYYCQVWDSSSDHWFFGGGTKLTVLG
For the molecule B10, the binding result was “binds”.

B11: I084A01 (scFv)
scFv: QVQLVQSGGGLVQPGGSLRLSCAASGFTFSSYEMNWVRQAPGKGLEWVSYISSSGSTTYYADSVKGRFTISRDNAKNSLYLQMNSLRAEDTAVYYCARDTTDYWGQGTMVTVSSGGGGSGGGGSGGGGSQSVLTQPPSASGTPGQRVTISCSGSSSNIGSNTVNWYQRLPGAAPQLLIYNNDQRPSGIPDRFSGSKSGTSGSLVISGLQSEDEADYYCASWDDSLNGRVFGGGTKLTVLG
For B11, the binding result is reported as “binds”.

B12: I084B02 (scFv)
scFv: QVQLVQSGGGLVQPGGSLRLSCAASGFTFSSYEMNWVRQAPGKGLEWVSYISSSGSTTYYADSVKGRFTISRDNAKNSLYLQMNSLRAEDTAVYYCARDTTDYWGQGTLVTVSSGGGGSGGGGSGGGGSDIVMTQSPSTLSASVGDRVTITCRASQGISSWLAWYQQKPGRAPKVLIYKASTLESGVPSRFSGSGSGTDFTLTISSLQPEDFATYYCQQSYSTPWTFGQGTKLEIKR
For the molecule B12, the binding result is reported as “binds”.

B13: I082G01 (scFv)
scFv: QMQLVQSGAEVKKPGASVKVSCKASGYTFTSYYMHWVRQAPGQGLEWMGLVHPNDGSVNYAQKFKGRVTMTRDTSTSTVYMELSSLRSDDTAVYYCARDRGSGWPNWYFDLWGQGTLVTVSSGGGGSGGGGSGGGGSDIQMTQSPSTLSASIGDRVTITCRASEGIYHWLAWYQQKPGKAPKLLIYKASSLASGAPSRFSGSGSGTDFTLTISSLQPDDFATYYCQQYSNYPLTFGGGTKLEIKH
On to B13, for which the binding result is given as “binds”.

B14: I082A05 (scFv)
scFv: QVQLQQSGGGVVQPGRSLRLSCAASGFTYSSYAMHWVRQAPGKGLEWVAVISYDGSIKYYADSVKGRFTISRDNSKNTLYLQMNSLRAEDTAVYYCARDLDFDYWGKGTLVTVSSGGGGSGGGGSGGGGSQSVLTQPPSVSAAPGQKVTISCSGSTSNIGNNYVSWYQQHPGKAPKFMIYDVSKRPSGVSNRFSGSKSGNTASLTISGVQAEDEADYYCSSYTSASTVIFGGGTKLTVLG
Regarding B14, the binding result is reported as “binds”.
